Assay [1] deals with T1, monkey TIM-3 on CHOK1 stable cell line (CHOK1-cTIM-3) (monkey).
T1 chain: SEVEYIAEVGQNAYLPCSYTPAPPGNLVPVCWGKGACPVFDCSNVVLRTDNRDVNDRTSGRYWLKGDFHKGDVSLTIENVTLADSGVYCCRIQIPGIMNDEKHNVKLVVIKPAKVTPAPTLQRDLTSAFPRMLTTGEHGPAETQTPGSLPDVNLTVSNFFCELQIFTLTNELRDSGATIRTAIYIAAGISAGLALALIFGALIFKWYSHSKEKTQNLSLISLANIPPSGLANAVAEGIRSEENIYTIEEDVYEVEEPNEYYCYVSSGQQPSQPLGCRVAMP
The experiment in a line: FACS, CHOK1-cTIM-3 cells, 0.064 nM antibody. The text has this:
(§1) The pIRES plasmid containing the full-length nucleotide sequence encoding human TIM-3 as described in Example 1 was transfected into CHOK1 cell line to obtain a CHOK1 stable cell line containing human TIM-3 (herein referred to as CHOK1-hTIM-3 stable cell line). The pIRES plasmid containing the full-length gene of monkey TIM-3 was transfected into CHOK1 cell line to construct a CHOK1 stable cell line containing monkey TIM-3 (herein referred to as CHOK1-cTIM-3 stable cell line). The CHOK1-hTIM-3 stable cell line and CHOK1-cTIM-3 stable cell line were expanded to a confluence of 90% in a T-75 cell culture flask. The medium was aspirated, and the cells were washed with HBSS (Hanks' Balanced Salt Solution) 1-2 times, and then treated with an enzyme-free cell dissociation solution (Versene solution: Life technology) and the cells were collected. The cells were washed with HBSS buffer for 1-2 times. After counted, the cells were diluted with HBSS to 1-2×10⁶ cells per ml, added with 1% goat serum blocking solution, incubated on ice for 20-30 minutes, and then washed with HBSS by centrifugation 2 times. The collected cells were suspended in the FACS buffer (HBSS+1% BSA) to 2×10⁶ cells/ml, added as 100 microliters per well to a 96-well FACS reaction plate, added with 100 microliters per well of the antibody sample to be tested, incubated on ice for 1-2 hours. The plate was washed twice with the FACS buffer by centrifugation, added with 100 microliters of fluorescent (Alexa 488)-labeled secondary antibodies per well, and incubated on ice for 0.5-1.0 hours. The plate was washed 2-3 times with FACS buffer by centrifugation, added with 100 μl fixative solution (4% Paraformaldehyde) per well to suspend the cells. 5-10 minutes later, it was washed 1-2 times with FACS buffer by centrifugation. The cells were suspended with 100 microliters of FACS buffer, FACS (FACSCalibur, BD) was used for detection and the results were analyzed. The results are shown in FIGS. 7 and 8, Tables 7 and 8, wherein the IgG control is rat IgG, and the data in the table are the average fluorescence intensity values of the cell populations measured by MFI.
(In general: Flow cytometry measures light scatter and fluorescence of single cells or particles in a stream.)

For assay [2], the target named is T1, monkey TIM-3 on CHOK1 stable cell line …. The experiment in a line: FACS, CHOK1-cTIM-3 cells, 8 nM antibody.
Text: as §1

Assay [3] shares this target. The experiment in a line: FACS, CHOK1-cTIM-3 cells, 200 nM antibody.
Text: as §1

Assay [4] has the same target. The experiment in a line: FACS, CHOK1-cTIM-3 cells, 0 nM antibody.
Text: as §1

The target is the same in assay [5]. The experiment in a line: FACS, CHOK1-cTIM-3 cells, 0.013 nM antibody.
Text: as §1

For assay [6] the target is unchanged. The experiment in a line: FACS, CHOK1-cTIM-3 cells, 0.32 nM antibody.
Text: as §1

For assay [7] the target is unchanged. The experiment in a line: FACS, CHOK1-cTIM-3 cells, 1.6 nM antibody.
Text: as §1

The target is the same in assay [8]. The experiment in a line: FACS, CHOK1-cTIM-3 cells, 40 nM antibody.
Text: as §1

For assay [9], the target named is T2, TIM-3 protein on human peripheral blood mononuclear lymphocytes (PBMC) (human, UniProt Q8TDQ0 22-301).
T2 sequence: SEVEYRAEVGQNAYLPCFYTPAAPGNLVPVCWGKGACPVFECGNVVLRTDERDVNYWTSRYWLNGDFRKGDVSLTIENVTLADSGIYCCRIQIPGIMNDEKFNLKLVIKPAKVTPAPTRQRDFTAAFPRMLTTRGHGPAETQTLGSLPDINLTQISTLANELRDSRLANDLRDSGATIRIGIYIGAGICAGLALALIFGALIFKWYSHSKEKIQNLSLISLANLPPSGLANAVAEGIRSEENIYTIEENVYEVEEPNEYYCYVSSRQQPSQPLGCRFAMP
The experiment in a line: cell-based or functional assay.

Changes are numbered by the printed parent chain.

B1: 215A8F2 TIM-3 antibody purified from hybridoma supernatant (chimeric antibody of Example 2) (antibody, V domains shown)
VH: QVQLQQWGAGLLKPSETLSLTCTVYGGSFSGYYWNWIRQPPGKGLEWLGEINHSGSTNYNPSLKRRVTISVDTSKNQFSLKLSSVTAADTAVYYCARVYYYGPFDFWGQGTLVTVSS
VL: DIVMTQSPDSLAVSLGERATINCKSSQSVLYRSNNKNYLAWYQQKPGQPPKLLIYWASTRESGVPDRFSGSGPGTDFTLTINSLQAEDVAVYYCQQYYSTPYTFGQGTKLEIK
Consider B1, for which the Mean fluorescence intensity in assay [1] worked out at 34.7. The molecule also gave a Mean fluorescence intensity in assay [2] of 733. In assay [3], the Mean fluorescence intensity came to 961. This molecule also returned a Mean fluorescence intensity in assay [4] of 3.2. Moreover, in [5], the Mean fluorescence intensity is 13.6. Also, in assay [6], the Mean fluorescence intensity is 108. The Mean fluorescence intensity in [7] was found to be 330. In [8], this molecule displayed a Mean fluorescence intensity of 976. In assay [9], the “IFN production; antibody 0.001 µg/ml (4th head as printed), N = 1” value was found to be 782 pg/mL; the “IFN production; antibody 0.001 µg/ml (4th head as printed), N = 2” value was found to be 753 pg/mL; the “IFN production; antibody 0.001 µg/ml (5th head as printed), N = 1” value stood at 791 pg/mL; the “IFN production; antibody 0.001 µg/ml (5th head as printed), N = 2” value was found to be 741 pg/mL. For the same molecule, in [9], the “IFN production; antibody 0.1 µg/ml, N = 1” value came out at 840 pg/mL; the “IFN production; antibody 0.1 µg/ml, N = 2” value was found to be 901 pg/mL; the “IFN production; antibody 1 µg/ml, N = 1” value came out at 1020 pg/mL; the “IFN production; antibody 1 µg/ml, N = 2” value worked out at 1070 pg/mL. For the same molecule, in [9], the “IFN production; antibody 10 µg/ml, N = 1” value is 943 pg/mL and the “IFN production; antibody 10 µg/ml, N = 2” value is 1070 pg/mL.

B2: 7A4F10 TIM-3 antibody purified from hybridoma supernatant (chimeric antibody of Example 2) (antibody, V domains shown)
VH: EVQLLESGGGLVQPGGSLRLSCAASGFTFRTHLISWVRQAPGKGLEWVAAITGSGGSTYYADSVKGRFIISRDNSKNTLFLQMNSLRAEDTAVYYCAKDGGSGSYDDFWGQGTLVTVSS
VL: ETVLTQSPVTLSLSPGERATLSCRASQSVGSYLAWYQQKPGQAPRLLIYDASNRATGIPARFSGSGSGTDFTLTISSLEPEDFAVYYCQQRSNWPPTFGQGTKVEIK
Consider B2, for which, in assay [1], the Mean fluorescence intensity was 5.9. The molecule further returned a Mean fluorescence intensity in assay [2] of 90. In [3], the Mean fluorescence intensity stood at 147. The Mean fluorescence intensity in assay [4] amounted to 3.2. Moreover, the Mean fluorescence intensity in assay [5] came out at 4.1. In [6], this molecule gave a Mean fluorescence intensity of 11.3. For the same molecule, the Mean fluorescence intensity in [7] turned out to be 29.1. Also, the Mean fluorescence intensity in assay [8] was 163. Moreover, in [9], the “IFN production; antibody 0.001 µg/ml (4th head as printed), N = 1” value came to 672 pg/mL; the “IFN production; antibody 0.001 µg/ml (4th head as printed), N = 2” value came out at 719 pg/mL; the “IFN production; antibody 0.001 µg/ml (5th head as printed), N = 1” value stood at 666 pg/mL; the “IFN production; antibody 0.001 µg/ml (5th head as printed), N = 2” value is 756 pg/mL. In addition, in [9], the “IFN production; antibody 0.1 µg/ml, N = 1” value came to 758 pg/mL; the “IFN production; antibody 0.1 µg/ml, N = 2” value is 873 pg/mL; the “IFN production; antibody 1 µg/ml, N = 1” value amounted to 1010 pg/mL; the “IFN production; antibody 1 µg/ml, N = 2” value was determined as 1160 pg/mL. For the same molecule, in assay [9], the “IFN production; antibody 10 µg/ml, N = 1” value worked out at 848 pg/mL and the “IFN production; antibody 10 µg/ml, N = 2” value stood at 1010 pg/mL.

B3: 18D2H2 TIM-3 antibody purified from hybridoma supernatant (chimeric antibody of Example 2) (antibody, V domains shown)
VH: EVQLVESGGDLVQPGGSLRLSCAASGFTFSTYWMTWVRQAPGRGLEWVANIKQDGSAKYYVDSVKGRFTLSRDDAKNSLYLQMNSLRAEDTAVYYCARGSNWFDYWGQGTLVTVSS
VL: ETVMTQSPATLSVSPGERATLSCRANQNVYSNLAWYQQKPGQAPRLLIYDASTRATGFPARFSGSGSGTEFTLTISSLQSEDFAVYYCQQYNNWPLTFGGGTKVEIK
As to B3, the Mean fluorescence intensity in assay [1] worked out at 6.9; in assay [2], 92.2; in assay [3] it was 203; in assay [4], 3.2; in assay [5], 4.3; in assay [6], 14.4. Moreover, the Mean fluorescence intensity in assay [7] came to 35.8; in assay [8], 186.

B4: 57F4E5 TIM-3 antibody purified from hybridoma supernatant (chimeric antibody of Example 2) (antibody, V domains shown)
VH: EVQLVESGGGLVQPGGSLRLSCAASGFTFSSYWMSWVRQAPGKGLEWVANIKQDGSEKYYVDSVKGRFTISRDSAKNSLYLQMNSLRAEDTAMYFCARDSNFFDYWGQGTLVTVSS
VL: B3 VL with N26S, N28S, Y30S, Q38R, D50F, A51S, F58I
As to B4, the Mean fluorescence intensity in assay [1] was determined as 59.6; in assay [2], 704; in [3], 675; in [4] it was 3.2; in [5], 22.2; in assay [6] it was 185. In addition, the Mean fluorescence intensity in assay [7] amounted to 460; in assay [8], 699.

The values are drawn from patent US20220033501A1 (SHANGHAI PHARMAEXPLORER, published 2022).
